Reference: PMC6181439 (2018)

Legend:
[1] = molecular target: T1, Recombinant mouse PrP full length (23-230) (mouse, UniProt P04925 23-230); experiment: SPR
[2] = molecular target: T1, Recombinant mouse PrP full length …; experiment: SPR; remark: listed apart in the source

T1 sequence (P04925 23-230): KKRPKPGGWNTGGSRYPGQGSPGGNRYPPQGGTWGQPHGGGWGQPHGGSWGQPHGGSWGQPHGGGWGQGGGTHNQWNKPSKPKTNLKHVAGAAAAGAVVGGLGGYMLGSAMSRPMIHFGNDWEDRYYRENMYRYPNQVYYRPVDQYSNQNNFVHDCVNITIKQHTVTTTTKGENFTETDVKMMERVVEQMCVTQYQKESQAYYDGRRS

B1: scPOM2 (scFv, V domains shown)
VH: VKLQESGGEVVRPGTSVKVSCKASGYAFTNYLIEWVKQRPGQGLEWIGVINPGSGDTNYNEKFKGKATLTADKSSSTAYMQLNSLTSDDSAVYFCARSGAAAPTYYAMDYWGQGVSVTVSS
VL: DIVMTQSHKFMSTSVGDRVSITCKASQVGTALAWYQQKPGQSPKLLIYWASTRHTGVPDRFTGSGSGTDFTLTISNVQSEDLSDYFCQQYSSYPTFGGGTKLEIK
Binder B1 has a koff [1] of 0.00036 s⁻¹ and a Kd [2] of 23 nM.

B2: Full IgG POM2 monoclonal antibody (antibody, V domains shown)
VH: VKLQESGGEVVRPGTSVKVSCKASGYAFTNYLIEWVKQRPGQGLEWIGVINPGSGDTNYNEKFKGKATLTADKSSSTAYMQLNSLTSDDSAVYFCARSGAAAPTYYAMDYWGQGVSVTVSS
VL: DIVMTQSHKFMSTSVGDRVSITCKASQVGTALAWYQQKPGQSPKLLIYWASTRHTGVPDRFTGSGSGTDFTLTISNVQSEDLSDYFCQQYSSYPTFGGGTKLEIK
B2 was tested, and the koff [1] was 9.5e-06 s⁻¹ and the Kd [2] was 0.1 nM.
